Laboratory results taken from patent US20230235054A1 (BIOATLA, published 2023).
Like-named read-outs stand apart in the source and are kept apart here.

Assays:
huNectin4-His [1] = target: T1, huNectin4-His (human, UniProt Q96NY8 32-349); assay: SPR, huNectin4-His immobilized, pH 6.5
T1 construct: Immobilized on the SPR chip; also called humanNectin4; human Nectin4; not shown: His tag
T1 sequence (looked up): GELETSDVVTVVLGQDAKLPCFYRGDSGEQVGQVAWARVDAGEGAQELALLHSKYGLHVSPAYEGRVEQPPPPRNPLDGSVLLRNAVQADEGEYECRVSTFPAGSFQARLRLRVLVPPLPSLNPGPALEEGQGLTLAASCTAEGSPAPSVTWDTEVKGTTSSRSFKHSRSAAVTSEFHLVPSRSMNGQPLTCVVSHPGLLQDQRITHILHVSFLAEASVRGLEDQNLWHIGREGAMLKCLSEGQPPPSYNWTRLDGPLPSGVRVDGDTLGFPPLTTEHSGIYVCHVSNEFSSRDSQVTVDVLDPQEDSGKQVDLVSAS
Description: (§1) Binding kinetics of anti-Nectin4 antibodies were measured by surface plasmon resonance using a SPR2/4 instrument (Sierra Sensors, Hamburg, Germany) and flat amine sensor chips. The SPR sensor contained four flow cells (FC1-FC4), each of which was addressed individually or in groups. huNectin4-His was immobilized in FC2, and cynoNectin4-mFc in FC4. No protein was immobilized in FC1 and FC3 which were used as control surfaces for FC2 and FC4, respectively.
(§2) All injections were done at a flow rate of 25 μL/min at 25° C. The sensor surface was activated with 1-ethyl-3-(3-dimethylaminopropyl)-carbodiimide (EDC) and N-hydroxysuccinimide (NHS) (200 mM/50 mM) for 480 seconds. HuNectin4-His (2 μg/mL in 10 mM NaAc, pH4.5) was injected for 480s and the surface was inactivated by injecting 1M ethanolamine-HCl for 480s. CynoNectin4 was immobilized using the same conditions as described for huNectin4-His, except that the cynoNectin4 was diluted into 10 mM NaAc buffer having pH 5.0. The control surface was activated and deactivated using the same conditions, but without injecting protein. PBST buffer (PBS pH 7.4 with 0.05% TWEEN20™) was used as running buffer for the surface preparation. The running solution was switched to PBST with 30 mM sodium bicarbonate with the pH adjusted as indicated in the figures before the analyte injections. The instrument was equilibrated with the running solution for one hour before the first analyte injection.
(§3) The off-rate was measured for 360s. The chip surface was regenerated after each cycle of interaction analysis by injecting 6 μL of 10 mM glycine (pH 2.0). Flow cells 1 and 3 without immobilized protein were used as control surfaces for reference subtraction.

human Nectin-4 on cells [2] = target: T2, human Nectin-4 on cells (human, UniProt Q96NY8 32-510); assay: cell-based or functional assay
T2 sequence (looked up): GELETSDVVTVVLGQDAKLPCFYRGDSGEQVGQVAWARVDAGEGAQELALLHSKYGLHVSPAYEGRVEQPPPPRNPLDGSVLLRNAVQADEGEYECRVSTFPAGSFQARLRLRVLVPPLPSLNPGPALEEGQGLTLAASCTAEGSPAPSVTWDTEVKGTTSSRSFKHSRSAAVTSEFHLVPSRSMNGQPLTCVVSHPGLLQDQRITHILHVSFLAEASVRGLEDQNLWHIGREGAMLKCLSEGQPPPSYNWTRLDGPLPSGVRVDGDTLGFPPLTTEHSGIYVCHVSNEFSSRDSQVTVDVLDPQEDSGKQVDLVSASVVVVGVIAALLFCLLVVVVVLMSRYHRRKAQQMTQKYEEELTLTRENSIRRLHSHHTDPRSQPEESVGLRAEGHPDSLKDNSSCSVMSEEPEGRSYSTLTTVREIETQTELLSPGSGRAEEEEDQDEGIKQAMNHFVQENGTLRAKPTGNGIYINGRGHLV

huNectin4-His [3] = target: T1, huNectin4-His; assay: SPR, huNectin4-His immobilized, pH 6.5; remark: listed apart in the source
Description: as §1, §2, §3

[4] = target: T3, recombinant human Nectin4 antigen (human, UniProt Q96NY8 32-349); assay: pH range ELISA, 30 ng/mL, pH of 50% binding activity
T3 construct: construct not described
T3 sequence (looked up): T1 sequence (looked up)
Description: 1) Coat ELISA plates with 100 μL of 1 μg/mL recombinant human Nectin4 antigen in carbonate-bicarbonate coating buffer [0462] 2) Cover plates with sealing film and incubate overnight at 4° C. […] 3) Decant plates and tap out residual liquid on a stack of paper towels [0464] 4) Wash wells twice by dispensing 200 μL of various pH incubation buffer to the wells and completely aspirate the contents [0465] 5) Add 200 μL of various pH incubation buffers (pH5.5, 6.0, 6.2, 6.5, 6.7, 7.0 and 7.4) to the wells. Cover with sealing film and place the plate onto a plate shaker (set to 200 rpm) for 60 minutes at room temperature [0466] 6) Decant plates and tap out residual liquid on a stack of paper towels [0467] 7) Serially dilute test substances in various pH incubation buffers (pH5.5, 6.0, 6.2, 6.5, 6.7, 7.0 and 7.4) to 30 ng/mL [0468] 8) Add 100 μL/well of diluted test substances to the plates [0469] 9) Cover with sealing film and place the plates onto a plate shaker (set to 200 rpm) for 60 minutes at room temperature. [0470] 10) Decant plates and tap out residual liquid on a stack of paper towels. […] 12) Dilute the HRP secondary antibody at 1:2500 in various pH incubation buffers (pH5.5, 6.0, 6.2, 6.5, 6.7, 7.0 and 7.4) [0473] 13) Add 100 μL HRP secondary antibody diluted in various pH incubation buffers (pH5.5, 6.0, 6.2, 6.5, 6.7, 7.0 and 7.4) to each well. […] 14) Cover with sealing film and place the plates onto a plate shaker (set to 200 rpm) for 60 minutes at room temperature. [0475] 15) Decant plates and tap out residual liquid on a stack of paper towels. […] 16) Wash wells three times by dispensing 200 μL of various pH wash buffer (pH5.5, 6.0, 6.2, 6.5, 6.7, 7.0 and 7.4) to the wells and completely aspirating the contents [0477] 17) Dispense 50 μL per well of the TMB substrate solution into all wells of plates.

human Nectin-4 on cells [5] = target: T2, human Nectin-4 on cells; assay: FACS, T47D cells

- Kd (huNectin4-His [1]): 0.785 nM
- koff (huNectin4-His [1]): 0.000474 s⁻¹
- kon (huNectin4-His [1]): 605000 M⁻¹ s⁻¹
- Kd (huNectin4-His [3]): 5.15 nM
- koff (huNectin4-His [3]): 0.00245 s⁻¹
- kon (huNectin4-His [3]): 476000 M⁻¹ s⁻¹
- pH inflection point [4]: 6.59 pH
- Ratio (pH 7.4/6.0) of EC50 (human Nectin-4 on cells [5]): 6.2
B1: BAP-143-00-01 (antibody, V domains shown)
VH: EVQLVESGGGLVQPGGSLRLSCAASGFTFSSYNMNWVRQAPGKGLEWVSYISSSSSTIYYADSVKGRFTISRDNAKNSLSLQMNSLRDEDTAVYYCARAYYYGMDVWGQGTTVTVSS
VL: DIQMTQSPSSVSASVGDRVTITCRASQGISGWEAWYQQKPGKAPKFLIYAASTLQSGVPSRFSGSGSGTDFTLTISSLQPEDFATYYCQQANSFPPTFGGGTKVEIK
notes: Used as a conjugate with a linker payload (CAB ADC)
- Ratio (pH 7.4/6.0) of cell killing EC50 (human Nectin-4 on cells [2]): 2.1
